Here are results for one molecule from patent publication US20170305994A1 (Novo Nordisk, published 2017).

Broadly, the IC50 is the concentration at which inhibition is half-maximal. The low end stands for greater potency, the high end for weaker potency. A word on the Kd: it is the constant that tells how readily two partners part at equilibrium. High values mean a looser complex, low ones a tighter complex. By koff is commonly meant the rate constant with which the complex falls apart. A high value points to a short-lived complex. The kon is the second-order rate constant of association.

The target in assay [1] is T1, human DR3 (full length, on cells) (human, UniProt Q93038 25-417).
T1 sequence: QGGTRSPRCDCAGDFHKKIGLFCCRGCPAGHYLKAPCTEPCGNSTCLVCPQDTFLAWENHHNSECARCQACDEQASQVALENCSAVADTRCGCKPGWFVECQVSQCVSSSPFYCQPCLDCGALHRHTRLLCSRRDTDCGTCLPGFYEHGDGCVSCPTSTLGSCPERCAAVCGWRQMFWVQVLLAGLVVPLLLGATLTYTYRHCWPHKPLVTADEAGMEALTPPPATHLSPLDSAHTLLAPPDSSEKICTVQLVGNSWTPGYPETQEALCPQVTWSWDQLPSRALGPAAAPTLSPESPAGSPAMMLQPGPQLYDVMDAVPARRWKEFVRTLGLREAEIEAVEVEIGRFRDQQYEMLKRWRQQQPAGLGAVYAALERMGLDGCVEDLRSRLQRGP
As to the kind of experiment: cell-based or functional assay.

Assay [2] has as its target T1, human DR3 (full length, on cells). Put plainly: cell-based or functional assay. The source holds these as a separate data set.
For assay [3] the target is unchanged. Put plainly: cell-based or functional assay. This is another data set of the same source.
Assay [4] addresses T2, human DR3 L45V (human, UniProt Q93038 25-417).
T2 sequence: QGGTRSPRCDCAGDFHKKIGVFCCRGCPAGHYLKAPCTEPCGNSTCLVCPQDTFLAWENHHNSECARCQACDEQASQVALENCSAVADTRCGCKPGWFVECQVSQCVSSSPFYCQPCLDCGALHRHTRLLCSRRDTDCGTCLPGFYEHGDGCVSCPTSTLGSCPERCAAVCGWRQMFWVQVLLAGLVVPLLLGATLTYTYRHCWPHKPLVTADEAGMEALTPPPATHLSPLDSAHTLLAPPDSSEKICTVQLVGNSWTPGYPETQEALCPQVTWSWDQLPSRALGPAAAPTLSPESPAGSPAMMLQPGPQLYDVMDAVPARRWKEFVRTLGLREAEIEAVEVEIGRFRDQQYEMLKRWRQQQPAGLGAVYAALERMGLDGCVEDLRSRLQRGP
Put plainly: cell-based or functional assay.

In assay [5] the target is T3, human DR3 with the death domain deleted (ΔM339-P417 of SEQ ID NO:1), expressed on CHOK1SV cells (human, UniProt Q93038 25-338).
T3 construct: also called truncated DR3; hDR3 expressing CHO cells
T3 sequence: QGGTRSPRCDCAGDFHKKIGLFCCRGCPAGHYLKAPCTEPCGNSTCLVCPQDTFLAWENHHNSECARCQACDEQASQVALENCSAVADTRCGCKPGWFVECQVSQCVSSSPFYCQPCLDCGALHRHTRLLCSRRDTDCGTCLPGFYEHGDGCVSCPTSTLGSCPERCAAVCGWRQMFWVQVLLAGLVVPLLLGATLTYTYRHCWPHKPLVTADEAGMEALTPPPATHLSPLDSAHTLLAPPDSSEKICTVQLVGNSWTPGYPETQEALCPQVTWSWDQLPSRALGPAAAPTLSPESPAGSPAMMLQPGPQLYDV
Put plainly: FACS on DR3 expressing cells; competitor Mab 0107.

Assay [6] has as its target T3, human DR3 with the death domain deleted …. As to the kind of experiment: flow cytometry competition: Fab vs TL1A on hDR3-expressing CHO cells. On the technique in general: In flow cytometry, cells or beads pass a laser one at a time.
In assay [7] the target is T4, DR3 (CRD1)-Fc (human).
T4 construct: Amino acids 25-71 of DR3 fused to the Fc domain of human IgG4; purified to exclude oligomers (mainly dimeric)
T4 sequence (chain, as listed by the source limits assumed): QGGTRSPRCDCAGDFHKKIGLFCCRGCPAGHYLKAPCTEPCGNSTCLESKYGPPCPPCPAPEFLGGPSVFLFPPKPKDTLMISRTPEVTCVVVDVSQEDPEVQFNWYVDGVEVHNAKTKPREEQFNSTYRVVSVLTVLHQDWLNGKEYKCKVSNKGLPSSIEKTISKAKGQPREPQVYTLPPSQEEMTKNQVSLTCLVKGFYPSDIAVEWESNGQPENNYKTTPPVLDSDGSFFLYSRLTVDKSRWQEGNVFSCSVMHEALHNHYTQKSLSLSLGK
As to the kind of experiment: SPR Biacore T200, DR3(CRD1)-Fc captured by anti-human IgG, Fab as analyte, 25 C, 1:1 model, mean of 3 surface densities. As to the method:
The experiments were performed on a Biacore T200 instrument (GE Healthcare) and analysed with the Biacore T200 Evaluation Software. Anti human IgG antibodies (human IgG capture kit from GE Healthcare) were immobilized on all flow cells of a CM5 sensor chip according to manufacturer's instructions. HBS-EP (GE Healthcare) with 0.1% human serum albumin was used as running buffer. DR3(CRD1)-Fc (SEQ ID NO:2) was captured on the chip at low surface densities between 14 and 45 RU. Fab fragments were diluted to concentrations between 90 and 0.037 nM and subsequently injected for 360 s. […] Binding curves were measured at 25° C. with a flow rate between 30 and 60 μL/min.
Regeneration was performed with 3 M […] for 2×20 s. The raw data were double referenced by subtraction of the signals from a reference flow cell without captured ligand and a buffer blank. Determination of the kinetic parameters was performed by fitting with a 1:1 binding model using the Biacore T200 Evaluation Software (GE Healthcare). Average values obtained from 3 different surface densities of DR3(CRD1)-Fc (SEQ ID NO:2) were calculated and are stated in table 14
A general note: Surface plasmon resonance follows binding to a sensor surface in real time, without labels.

B1: 0228 (humanized Fab of 27F44, IgG4, hz0072VH S49A / hz0072VL) (Fab, V domains shown)
VH: EVQLVESGGGLVQPGGSLRLSCAASGFTFSNYDMSWVRQATGKGLEWVAAFSSDGYTFYPGSVKGRFTISRENAKNSLYLQMNSLRAGDTAVYYCARHADYANYPVMDYWGQGTLVTVSS
VL: DIQMTQSPSSLSASVGDRVTITCRASKSVSTSGYSYMHWYQQKPGKAPKLLIYLASNLESGVPSRFSGSGSGTDFTLTISSLQPEDFATYYCQHSRELPLTFGGGTKVEIKR
notes: IgG4-Cys, hz (humanized IgG4 Fab with the hinge cysteine kept)
With B1, half-maximal inhibition in assay [1] (IC50 at 40 ng/ml TL1A, I5 reporter cells) was put at 0.32 nM. Moreover, in assay [2], the “IC50, TNFalpha inhibition, TL1A-activated CD4+ T cells, donor 1” value worked out at 0.3 nM; the “IC50, TNFalpha inhibition, TL1A-activated CD4+ T cells, donor 2” value turned out to be 0.17 nM; the “IC50, TNFalpha inhibition, average (n 3)” value was 0.189 nM; the “max % inhibition of TNFalpha, donor 1” value was 92.2%. Also, the “max % inhibition of TNFalpha, donor 2” value in assay [2] is 82.3%. Further, in assay [3], the “IC50 of Fab upon stimulation by TL1A, transient reporter” value amounted to 0.645 nM. Further, the “IC50 of Fab upon stimulation by TL1A, transient reporter” value in assay [4] stood at 2 nM. Besides, the “molar ratio Mab/Fab from which the Fab inhibits” value in assay [5] is 1 Fab per Mab (molar ratio Mab/Fab 1:n). In assay [6], this molecule gave an IC50 of 0.484 nM and a max percentage inhibition of 78%. Also, in assay [7], the affinity, expressed as Kd, was 0.00805 nM; the koff was found to be 3.19e-05 s⁻¹; the kon stood at 3.97e+06 M⁻¹ s⁻¹.
